According to US20170158767A1 (published 2017):

How the values were obtained:
[1] = biological target: T1, human PD-L1 expressed at the cell surface (human, UniProt Q9NZQ7 19-290); assay: flow cytometry on CHO cells transfected with human PD-L1 (FIG. 32A)
T1 construct: whole, on cells; also called cell surface PD-L1; full-length human PD-L1 on transfected CHO cells
Experimental: (§1) Chinese hamster ovary (CHO) cell lines that express recombinant human PD-L1 at the cell surface were developed and used to determine the specificity of PD-L1 human monoclonal antibodies by flow cytometry. CHO cells were transfected with expression plasmids containing full length cDNA encoding transmembrane forms of PD-L1. […] The cells were washed and binding was detected with a FITC-labeled anti-human IgG Ab. Flow cytometric analyses were performed using a FACScan flow cytometry (Becton Dickinson, San Jose, Calif.). The binding was compared to the parent CHO cell line. […] Binding was also tested using varying concentrations of an anti-PD-L1 antibody.

[2] = biological target: T1, human PD-L1 expressed at the cell …; assay: flow cytometry on CHO cells transfected with human PD-L1 (FIG. 32B)
Experimental: as §1

[3] = biological target: T1, human PD-L1 expressed at the cell …; assay: flow cytometry, serial dilutions on anti-CD3-activated human T cells
Experimental: Human or monkey T cells were activated by anti-CD3 antibody to induce PD-L1 expression prior to binding with a human anti-PD-L1 monoclonal antibody. […] An isotype control antibody was used as a negative control. The cells were washed and binding was detected with a FITC-labeled anti-human Ig-kappa light chain Ab. Flow cytometric analyses were performed using a FACScalibur flow cytometer (Becton Dickinson, San Jose, Calif.).

T1 sequence (Q9NZQ7 19-290): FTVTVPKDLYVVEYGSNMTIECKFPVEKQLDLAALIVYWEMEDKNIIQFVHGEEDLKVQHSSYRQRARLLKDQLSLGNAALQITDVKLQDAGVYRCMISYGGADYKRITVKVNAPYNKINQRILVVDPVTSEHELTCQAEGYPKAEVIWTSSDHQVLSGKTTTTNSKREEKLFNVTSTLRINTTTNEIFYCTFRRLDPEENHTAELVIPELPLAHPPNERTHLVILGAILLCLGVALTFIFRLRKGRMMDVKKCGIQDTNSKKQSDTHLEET

B1: 3G10 human monoclonal antibody (antibody, V domains shown)
VH: QVQLVQSGAEVKKPGASVKVSCKASGYTFTDYGFSWVRQAPGQGLEWMGWITAYNGNTNYAQKLQGRVTMTTDTSTSTVYMELRSLRSDDTAVYYCARDYFYGMDVWGQGTTVTVSS
VL: EIVLTQSPATLSLSPGERATLSCRASQSVSSYLVWYQQKPGQAPRLLIYDASNRATGIPARFSGSGSGTDFTLTISSLEPEDFAVYYCQQRSNWPRTFGQGTKVEIK
notes: Fully human IgG kappa from a KM mouse hybridoma; also called HuMAb 3G10
binding result [1]: binds

B2: 10A5 human monoclonal antibody (antibody, V domains shown)
VH: QVQLVQSGAEVKKPGASVKVSCKASGYTFTSYDVHWVRQAPGQRLEWMGWLHADTGITKFSQKFQGRVTITRDTSASTAYMELSSLRSEDTAVYYCARERIQLWFDYWGQGTLVTVSS
VL: DIQMTQSPSSLSASVGDRVTITCRASQGISSWLAWYQQKPEKAPKSLIYAASSLQSGVPSRFSGSGSGTDFTLTISSLQPEDFATYYCQQYNSYPYTFGQGTKLEIK
notes: Fully human IgG kappa from a KM mouse hybridoma; also called HuMAb 10A5
binding result [2]: binds

B3: 1B12 human monoclonal antibody (antibody, V domains shown)
VH: QVQLVQSGAEVKKPGSSVKVSCKTSGDTFSSYAISWVRQAPGQGLEWMGGIIPIFGRAHYAQKFQGRVTITADESTSTAYMELSSLRSEDTAVYFCARKFHFVSGSPFGMDVWGQGTTVTVSS
VL: not shown
notes: Fully human IgG kappa from a KM mouse hybridoma
binding result [3]: binds
